Experimental findings from patent US20230365648A1 are described below.

What all share (experiment): BLI (Octet)
The target of experiment [1] is Rat CD47 (rat) (UniProt P97829).
The target in experiment [2] is Human CD47 (human) (UniProt Q08722).
Experiment [3] concerns the target Cyno CD47 (Cyno monkey).

Sequence of Human CD47 (human) (Q08722 19-139): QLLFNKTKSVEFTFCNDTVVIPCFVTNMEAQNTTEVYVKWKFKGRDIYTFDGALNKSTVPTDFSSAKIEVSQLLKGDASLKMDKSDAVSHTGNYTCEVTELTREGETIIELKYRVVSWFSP
Sequence of Rat CD47 (rat) (P97829 19-140): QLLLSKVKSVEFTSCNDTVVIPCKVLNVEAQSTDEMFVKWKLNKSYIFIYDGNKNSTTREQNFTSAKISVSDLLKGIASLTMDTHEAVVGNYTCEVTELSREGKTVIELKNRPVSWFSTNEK

A word on the Kd: it is a measure of binding affinity in units of concentration. Anti-human CD47 (clone MIAP410): the results for the dissociation constant (Kd) in experiment [1], in experiment [2] and in experiment [3] were 1160 pM, 216 pM and 289 pM, respectively.
